Paper PMC3928614

What was measured:
[1] = target: autophosphorylated G547 IRE1α (residues G547-L977, incubated with Mg/ATP) (human) (UniProt O75460)
[2] = target: GST-G547 IRE1α (His-GST-tagged IRE1α residues G547-L977) (UniProt O75460)
[3] = target: GST-G547 IRE1α (His-GST-tagged IRE1α residues G547-L977) (UniProt O75460); experiment: native gel or EMSA; native polyacrylamide gel of purified GST-G547 IRE1α and G547 IRE1α; conditions not given

Substance: autophosphorylated G547 IRE1α (residues G547-L977, incubated with Mg/ATP) (from UniProt O75460 547-977) (domain or fragment)
- RNase activity (FRET-derepression assay) against concentration of autophosphorylated G547 IRE1α; activity from 50 nM, maximal at 350 nM [1]: 114 nM

Substance: GST-G547 IRE1α (His-GST-tagged IRE1α residues G547-L977) (from UniProt O75460 547-977)
- RNase activity (FRET derepression assay) of fully dephosphorylated GST-G547 IRE1α at 25 nM, the lowest concentration tested (% of full activity) [2]: 70
- stoichiometry N [3]: 2
